The source of these data is PMC6319338, “Insight into the PTEN – p85α interaction and lipid binding properties of the p85α BH domain” (Oncotarget, 2018).

In the assay the target is T1, purified p85α wild type (cleaved from GST) (bovine, UniProt P23727 1-724).
T1 construct: p85α (PI3K regulatory subunit alpha), bovine, residues 1-724; also called wild type p85α; source: E. coli, expressed as GST fusion, cleaved from GST, purified; not shown: GST, N-terminal, cleaved
Briefly: pull-down; GST-PTEN (wild type or mutant; 5 μg) immobilized on glutathione Sepharose beads; precleared purified p85α cleaved from GST (5 μg in 1% milk, 500 μl PBS pH 7.3); 30 minutes at room temperature; 5 washes; anti-p85α immunoblot, quantified with Odyssey software. The following applies: both partners purified.

B1: GST-PTEN wild type (1–403) (natural protein)
chain: not shown
notes: PTEN, human, residues 1-403 (74 kDa as GST fusion); vector pGEX6P1; The activity assay used His6-PTEN instead; also called wild type PTEN; source: E. coli, GST fusion immobilized on glutathione Sepharose beads
Turning to B1, the binding result is “binds”.
